Source: publication PMC12704277

Assays:
[1] = target: NCP-3′linker (nucleosome core particle with H3K9me3 and a single hemimethylated CpG site in the 3′-linker DNA) (human) (UniProt P04908); experiment: thermal stability assay (SYPRO Orange); 0.2 mg/ml protein; 20 mM Tris–HCl pH 7.5, 150 mM NaCl, 1 mM DTT; heated from 25 °C to 90 °C
[2] = target: NCP-5′linker (nucleosome core particle with H3K9me3 and a single hemimethylated CpG site in the 5′-linker DNA) (human) (UniProt P04908); experiment: as above
[3] = target: NCP-601 (nucleosome core particle with H3K9me3 and a single hemimethylated CpG site within the 3′-Widom 601 sequence) (human) (UniProt P04908); experiment: as above
[4] = target: NCP-3′linker (nucleosome core particle with H3K9me3 and a single hemimethylated CpG site in the 3′-linker DNA) (human) (UniProt P04908); experiment: mass photometry; UHRF1 and NCP mixed at a UHRF1–NCP ratio of 1:4, on ice 30 min; final 25 nM in 20 mM Tris–HCl pH 7.0, 150 mM NaCl
[5] = target: NCP-5′linker (nucleosome core particle with H3K9me3 and a single hemimethylated CpG site in the 5′-linker DNA) (human) (UniProt P04908); experiment: as above
[6] = target: NCP-601 (nucleosome core particle with H3K9me3 and a single hemimethylated CpG site within the 3′-Widom 601 sequence) (human) (UniProt P04908); experiment: as above

- Tm (denaturation temperature of UHRF1 bound to the NCP) [1]: 44.8 °C
- Tm (denaturation temperature of UHRF1 bound to the NCP) [2]: 44.2 °C
- Tm (denaturation temperature of UHRF1 bound to the NCP) [3]: 42.8 °C
- stoichiometry N [4]: 1
- stoichiometry N [5]: 1
- stoichiometry N [6]: 1
Substance: UHRF1 (ubiquitin-like with plant homeodomain and RING finger domain 1), full-length human, WT (from UniProt Q96T88 1-793) (enzyme)
